Experimental data from article PMC9935901, “B-lymphoid tyrosine kinase-mediated FAM83A phosphorylation elevates pancreatic tumorigenesis through interacting with β-catenin” (Signal Transduction and Targeted Therapy, 2023).
Entries after “also recorded” stand apart in the source; their conditions may differ.

B1: Wnt3a: Wnt agonist, Abcam ab153563 (protein, UniProt P56704 19-352, looked up)
Protein Wnt-3a: SYPIWWSLAVGPQYSSLGSQPILCASIPGLVPKQLRFCRNYVEIMPSVAEGIKIGIQECQHQFRGRRWNCTTVHDSLAIFGPVLDKATRESAFVHAIASAGVAFAVTRSCAEGTAAICGCSSRHQGSPGKGWKWGGCSEDIEFGGMVSREFADARENRPDARSAMNRHNNEAGRQAIASHMHLKCKCHGLSGSCEVKTCWWSQPDFRAIGDFLKDKYDSASEMVVEKHRESRGWVETLRPRYTYFKVPTERDLVYYEASPNFCEPNPETGSFGTRDRTCNVSSHGIDGCDLLCCGRGHNARAERRREKCRCVFHWCCYVSCQECTRVYDVHTCK
B2: GFP-FaP2: FaP2 fused with GFP via a flexible linker ((GGGGS)n), pEGFP-C1 expression vector, transfected (protein)
chain: ASAEKPYLKEKSSATVYFQTVKHNNIRDLVRRCITRTSQVLVILMDVFTDVEIFCDILEAANKRGVFVCVLLDQGGVKLFQEMCDKVQISDSHLKNISIRSVEGEIYCAKSGRKFAGQIREKFIISDWRFVLSGSYSFTWLCGHVHRNILSKFTGQAVELFDEEFRHLYASSKPVMGLKSPRL
modifications: left off: EGFP (from the vector pEGFP-C1), end not stated, kept
notes: FaP2 fused with GFP via a flexible linker ((GGGGS)n), pEGFP-C1 expression vector, transfected
B3: GFP-FaP3: FaP3 fused with GFP via a flexible linker ((GGGGS)n), pEGFP-C1 expression vector, transfected (protein)
chain: B2 chain
modifications: left off: EGFP (from the vector pEGFP-C1), end not stated, kept
notes: FaP3 fused with GFP via a flexible linker ((GGGGS)n), pEGFP-C1 expression vector, transfected

How the values were obtained:
FAM83A expression = FAM83A expression after Wnt3a treatment in PANC-1 cells; assay type: cell-based, human
From the text: Fig. 7 FAM83A is a direct downstream target of Wnt/β-catenin signaling and forms positive feedback in pancreatic cancer cells. a–d Representative western blotting images of the protein and mRNA levels of FAM83A after Wnt3a treatment for indicated concentrations and times in PANC-1 cells (n = 3). e, f The protein and mRNA levels of FAM83A after β-catenin knockdown in PANC-1 cells. Cell lysates were used for western blotting with the indicated antibodies (n = 3). g FAM83A gene promoter-reporter luciferase activity in HEK293T cells with or without β-catenin overexpression (left) and PANC-1 cells with or without β-catenin knockdown (right) (n = 6). h The schematic diagram of FAM83A gene promoter truncation and deletion generation. i PACN-1 cells were subjected to chromatin immunoprecipitation using antibodies against TCF4 and IgG, and the fold change of TCF/IgG was quantified (n = 3). j Predicted TCF4/LEF-binding sequence in the FAM83A gene promoter from the JASPAR website. k Schematic diagram of the generated luciferase report plasmids and the relative luciferase activity after transfection with the plasmids in HEK293T cells with or without Wnt3a treatment (n = 6). l A ChIP experiment was used to detect binding between the β-catenin-TCF4 complex and the predicted TCF/LEF-binding element in the FAM83A promoter (TBE1 and TBE2). […]

FAM83A localization = assay: FAM83A nuclear translocation upon Wnt3a treatment; assay type: cell-based; settings: confocal microscopy, nucleo-plasmic separation; Wnt3a 100 ng/mL; HEK293T, PANC-1
Experimental: Protein interactions were analyzed by western blotting (n = 3). Scale bars: 10 µm. *P < 0.05; **P < 0.01; ***P < 0.001. Data were presented as mean ± SD
Protein interactions were analyzed by western blotting (n = 3). c The level of β-catenin ubiquitination with or without Flag-tagged FAM83A overexpression or BLK kinase knockdown after MG132 treatment in HEK293T cells. Cell lysates were used for IP and western blotting with the indicated antibodies (n = 3). d The level of β-catenin ubiquitination with or without Flag-tagged FAM83A, Y138A, or Y138D mutants overexpression after MG132 treatment in HEK293T cells. […] Cell lysates were used for IP and western blotting with the indicated antibodies (n = 3). f The localization of Flag-tagged FAM83A and its Y138A, Y138D mutants in HEK293T cells were analyzed with confocal microscopy. g The protein level of cytoplasmic and nuclear β-catenin in HEK293T cells with or without Flag-tagged FAM83A, Y138A, or Y138D mutants transfection and Wnt3a treatment. […]

[1] = tested on: β-catenin destruction complex; assay: Co-IP, β-catenin with AXIN1 and GSK3β in PANC-1 cells; assay type: cell-based, human; settings: peptide treatment or GFP-fusion transfection, n = 3
[2] = tested on: β-catenin ubiquitination (HEK293T cells); assay: β-catenin ubiquitination in HEK293T cells; assay type: cell-based; settings: GFP-fusion transfection, n = 3
β-catenin stability = assay: β-catenin protein stability upon CHX treatment in PANC-1 cells; assay type: cell-based, human; settings: peptide treatment or GFP-fusion transfection, n = 3
Experimental: Fig. 8 Peptides disrupting FAM83A-β-catenin interaction inhibit Wnt/β-catenin signaling. a Identification of β-catenin binding α-helical peptide(s) in FAM83A DUF1669 (140aa–210aa) region. The secondary structure of the FAM83A DUF1669 (140aa–210aa) region was analyzed based on the PDB data (4urj). b The FaPC, FaP1, FaP2, and FaP3 fragments were constructed into pEGFP-C1 expression vector connection with a flexible linker ((GGGGS)n). The interactions between β-catenin and the four fragments were evaluated with Co-IP assays in HEK293T cells (n = 3). c, d The predicted docking model of FaP2, FaP3 with β-catenin 530–666 aa region. e, f Kinetic interactions of cell-penetrating peptide TAT-linked peptides with β-catenin was determined by surface plasmon resonance analyses. g Effect of CP-FaP2 and CP-FaP3 on β-catenin-FAM83A and β-catenin-TCF4 interactions in PANC-1 cells. Cells were treated with control (CP-FaPC), CP-FaP2, and CP-FaP3 (5 μM) for 24 hours. Cell lysates were used for IP and western blotting with the indicated antibodies (n = 3). h The schematic diagram of 7TGC plasmid construction and the fluorescence images of PANC-1 cells with control, CP-FaP2, and CP-FaP3 treatment. […]

Molecule	FAM83A mRNA level (FAM83A expression)	FAM83A protein level (FAM83A expression; n = 3)	FAM83A nuclear translocation (FAM83A localization)	assembly of β-catenin destruction complex [1]	β-catenin ubiquitination [2]	stability of β-catenin (β-catenin stability)
B1	elevated both the protein and mRNA levels of FAM83A in dose- and time-dependent manners	elevated both the protein and mRNA levels of FAM83A in dose- and time-dependent manners	FAM83A shifted from the cell cytoplasm to nucleus upon Wnt3a treatment; also recorded: increased the nuclear translocation of FAM83A			
B2				improved	improved	decreased
B3				improved	improved	decreased
